# Assay results as given in the DeepSol protein solubility set.
# Assay: soluble on expression in E. coli; label from the status in PepcDB or PDB records
row,Sequence,soluble on expression in E. coli
1,QYCWQHRFPTGYFSICDRYMNGTCPEGNSCKFAHGNAELHEWEERRDALKMKLNKA,soluble
2,RAKQQAAKSERRVRELTEATNDILWEFTADLSEVLVINSAYEDIWGRSVAKLRENPHDFLNGIHPEDRELMKDTMQSLMDGESADVECRVNATEEYQRWVWIQGEPITNDAGETVRVAGFARDIT,soluble
3,RDDSTLVIGHNTGALAHRINDPQHAGSIVTAIKQETDLDVTIECVVGTDPKAAGFSEPENKKVWNPEPKPEPKPEPKPEPKPEPEPAPASDNVWGAPAPLGGGQPATPPPPPVERFSPAKATAPQPPAAPQPVQEAPKPRWQQAAERGMRKMEERAKRPSFSDGVPLPPEPEEPDVPPDLYGYPADEGIPEPQTPQATSNYVVDHDEEEEMVREAAQGVGNRDHRDAMTVAVDILSEELGARQL,not soluble
4,RDPEGLLGDKEDLGITCALIPTDVKGVEIGNRHFPLNVPFQNGPTRGKDIFVPIDFIIGGEKMAGQGWRMLVECLSVGRGITLPSNSTGGIKSAAMATGAYSRIRRQFKQPIGHMEGVEEPLARLGGNAYVMDAASNLTVAGIDLGEKPSVISAIVKYHCTHRGQQSIIDAMDIVGGKGICLGPSNFLARGYQGSPIAVTVEGANILTRSMIIFGQGAIRCHPYVLEEMNAAYSEASDAVEKFDKALAGHVSFTMSNLVRSIWFGLSDGLGSSAPTKDATKRYYQQLNR,not soluble
5,REFAPPPNLPDPKFESKAALLAARGPEELLCFTERLEDLVCFWEEAASAGVGPGQYSFSYQLEDEPWKLCRLHQAPTARGAVRFWCSLPTADTSSFVPLELRVTAASGAPRYHRVIHINEVVLLDAPVGLVARLADESGHVVLRWLPPPETPMTSHIRYEVDVSAGQGAGSVQRVEILEGRTECVLSNLRGRTRYTFAVRARMAEPSFGGFWSEWSEPVSLLTPSDLD,soluble
6,REGVFRAERQRKAGELIISREPLTGLDDAARSQALLALVRRKGLELLPWTPELRQWQARVALLRSLDIDKSATSEWPDLSDAQLLATLENWLMPYLGKVT,not soluble
7,RELLMMTPSKELCQVVGNDVLEIEKVSDHQLKLAGITKVGQELRVNIDLHVDDDMIELDTLEQTRKQLTTRLSKHRFKLQLNLNVANC,not soluble
8,RGRLKVFLGAAPGVGKTYAMLQAAHAQLRQGVRVMAGVVETHGRAETEALLNGLPQQPLLRTEYRGMTLEEMDLDALLKAAPSLVLVDELAHTNAPGSRHTKRWQDIQELLAAGIDVYTTVNVQHLESLNDQVRGITGVQVRETLPDWVLQEAFDLVLIDLPPRELLERLRDGKVYVPEQARAAIDAFFTQTNLTALREMAMQTAAAQVDNDLAQGYRQLGQSAP,soluble
9,RLHEILASGVYANHPSPLTIALGKDISGRPVVSDLAKMPHALVAGTTGSGKSVAINAIILSLVYKASPDNVRLILIDPKMLELSVYDGIPHLLTPVVTDMRDAASALNWCVAEMERRYKLMSALGVRNLAGYNQKVREAVKNEEPLTNPLNPVPGSPELLEEMPLIVVVIDELADLMMIVGKKVEKLIARLAQKARAAGIHLLLATQRPSV,not soluble
10,RPAPLWAVVADAAVQPAMAAGNDDFETARALDTARELVAGLREGVDSLGGDVAEFKAAIPQHNFEQICDGCFAPIDPGVEPDYVVAHRVSCCMIYHSPTAGKCTSCPHQDKDVRKNALIAASESF,not soluble
11,RPVWYGDPISTSTSHRDLMLVVDLSYSMSQEDMQSGQQMVDRLTAVKQVLSEFIAKREGDRIGLILFADHAYLQTPLTLDRQTVANQLNQTVLKLIGTQTAIGEGIGLATKTFIDSDAPQRVMILLSDGSNTAGVLDPLEAANIAKQYNTTIYTVGVGAGEMVVKDFLFSRKVNTAQDLDEKTLQTIATTTGGHYFRARNQQDLQNIYDTINQLEPISQSN,not soluble
12,RQGELSIACLPVFSQSFLPLLLPPFLSRYPEVSLQIVPQESPLLEEWLSAQRHDLGLTETLHTPAGTERTPLLTLNEVCVLPAGHPLAAQATLTPADFQGENYISLSRTDSYRQLLDALFLEHQVKRRMVVETHSAASICAMVRAGA,not soluble
13,RRQHQHLLESLVHSTAKQQGDFTKTAELATELLCQNLAVSLVSIWIFSADQGTQSLVAQFGSMALQDTYRPSLLHTVPRYLNELKNYRHIDAGNTLIDPRLTELVDSYFIPRQILSSLDVGIRINGHLEGVLCIERAQVTHHWHDSEIHLACQMADQLALTLATKHAYDKEERLSLFRCAIEQSRQMSM,not soluble
14,RSKTVILAKNLPAGTLAAEIQETFSRFGSLGRVLLPEGGITAIVEFLEPLEARKAFRHLAYSKFHHVPLYLEWAPIGVFGAAPQKKDSQHEQPAEKAE,soluble
15,RSLIAGYDPLILDVSHGFNISEFARIANTLDDTTYTSLTPMQLLKAMDTLEGIESLRRFAAILVGGAPLRADDLRAAKELGINVVTTYGSSETSGGCVYNGRPIPGAKVRVV,not soluble
16,RTNRTGMATAIPDSLHKIFYTAAGRRVEDAGGILPDIEVKQDTAATLLYYMAINNDVFDFVTGYVLKHKTIAKPEDFSITNEDYAAFCKMMEEKKFDYDRQSGKMLDKLEELAKIEGYLPEANSELKALREKLKPNLSRDLLRFKKEITNYLNNEIVTRYYYERGSIRQSLPEDKVVKEAIKLLKDHPEQIRQILAAPKAENKG,not soluble
17,RVMDMKAPIKVYMTKKLLGVKPSTSVQEASRLMMEFDVGSLVVINDDGNVVGFFTKSDIIRRVIVPGLPYDIPVERIMTRNLITANVNTPLGEVLRKMAEHRIKHILIEEEGKIVGIFTLSDLLEASRRRLETAISAE,soluble
18,RVTDAEHPGVQLEFTNNKGELVSYEAISPWQKNAAGVNFHTFYGFGAVDLDEAMKRARMTNNVLPAQIITPWANNATEVSVPDASLAGGSSNIAITDDITVESVQVKLTLEHSRLPDLAIELVSPSGTRSVLQTPRNGLVGQSLDPNITGYENQLMLSNQFYGENAKGEWTLRAIDTNGDEVFSFIAYFNSSAIYDVPMANNAKPGVIKNWSMRIFGH,not soluble
19,SACSRDTPEAPQSTSATSSAAPSTTSASTTAPSSASASSITQTSKVSSQAEAPTSVPPMLDSKHKNVQRAFEQFGALAPESLFAQFDTCDANGVQNSMACSGHDVGQFQFFKSDAKAASTTQLLTELRSSRVIEDTGRR,not soluble
20,SADESDMRNELNDIQARADQLGDESLESTRRMLQLVEESKDAGIRTLVMLDEQGEQLERIEEGMDQINKDMKEAEKNLTDLGNLCGLCPCPCNKLKGGGQSWGNNQDGVVSSQPARVVDEREQMAISGGFIRRVTNDARENEMDENLEQVGSIIGNLRHMALDMGNEIDTQNRQIDRIMDMADSNKTRIDEANQRATKMLGSG,soluble
21,SADLLALLRDFTIHNREIKEDGDDIIFDNYAWNKSSKTNYIVWGTDKHGLIKEYYPLESIVYFLKNINLSHAQFVRQAAANGIFGIRLPDRQKLLDYLQGKITTCEAIDHSVPVDISQRRLVILQNNDKDPNDATGEPSSKRLCLEDGNSIDMANEGHSTDQQNEINLKESQRLAAKLQLPPGGKMTSDLYQNDPSKASTLIEHIPVDKIQMLRAKFRANHQQTIKPDESDVVPDKGKPLKSAIDAEEPIKPFVSKIQLGVTKNFVKEIMAREYTWRTRTTVLESHGKQFFDSVVLGTLKSVKLKEENLQHHTQRIGPHTPFPASNGHAGNVQQPAQAPTHYSRYDQERFTGAGQDTAGFKIDTMGTYHGKGLSSMMTDGSQANLTSRDPRANRQPAPRGLPPVSPGATPVDTGKGVTKANRAKSRVPIIIIPAAPTSLITMYNAKEILQDLRFEKTEDKKANGCRRDNDLLIQRLKSDGRTVPYRVIDQPNKLNREDWDRVVAVFVQGPAWQFKNWPIGSDPVEIFSLVKAFHLKYAHMPLHPDVKKWNVHVIQLDDHRHLDKANFQQIWDILDRHMV,soluble
